The test system of data set [1] is human macrophages. Nature of the data set: Custom gene array, macrophages with no cytokines, IL-10 or LPS + IFN, in normoxia and hypoxia. Format: cell-based. The following applies: for mRNA EXPRESSION (experimental condition) #1: #1 no cytokines/normoxia; for mRNA EXPRESSION (experimental condition) #2: #2 no cytokines/hypoxia; for mRNA EXPRESSION (experimental condition) #3: #3 IL-10/normoxia; for mRNA EXPRESSION (experimental condition) #4: #4 IL-10/hypoxia; for mRNA EXPRESSION (experimental condition) #5: #5 LPS/IFN/normoxia; for mRNA EXPRESSION (experimental condition) #6: #6 LPS/IFN/hypoxia. The gist of the method: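 Cultured macrophages were left untreated or given IL-10 or LPS + IFN, each at 100 ng/ml final, for 6 hr under normoxia or hypoxia (0.1% oxygen). Six conditions in total.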

For data set [2], the system named is human breast and ovary tumors. The data set is described as follows: Custom gene array, breast and ovary tumors versus normal adjacent tissue. The following applies: for gene expression level on custom gene array, Breast nor H / gene expression level on custom gene array, Breast nor K / gene expression level on custom gene array, Ovary nor E / gene expression level on custom gene array, Ovary nor F / gene expression level on custom gene array, Ovary nor G: normal adjacent tissue; for gene expression level on custom gene array, Breast nor H / gene expression level on custom gene array, Breast tum H: patient H; for gene expression level on custom gene array, Breast nor K / gene expression level on custom gene array, Breast tum K: patient K; for gene expression level on custom gene array, Breast tum H / gene expression level on custom gene array, Breast tum K / gene expression level on custom gene array, Ovary tum E / gene expression level on custom gene array, Ovary tum F / gene expression level on custom gene array, Ovary tum G: tumor tissue; for gene expression level on custom gene array, Ovary nor E / gene expression level on custom gene array, Ovary tum E: patient E; for gene expression level on custom gene array, Ovary nor F / gene expression level on custom gene array, Ovary tum F: patient F; for gene expression level on custom gene array, Ovary nor G / gene expression level on custom gene array, Ovary tum G: patient G. From the text: A study has been performed to examine the expression of these genes in a selection of breast and ovary tumors, comparing expression with normal adjacent tissue from the same patient. There is expected to be a large degree of variation between different patients, and the study here contains only 5 patients with a range of diagnoses.
Patients are designated as Letters:
E: person. Diagnosis: ovarian adenocarcinoma. Normal ovarian tissue derived from an age-matched separate individual.
: person. Diagnosis: poorly differentiated adenocarcinoma. Normal ovarian tissue derived from the same individual.
G: person. Diagnosis: moderately-differentiated adenocarcinoma. Normal ovarian tissue derived from the same individual.
H: person. Diagnosis: invasive ductal carcinoma. Normnal breast tissue derived from the same individual.
K: person. Diagnosis: invasive ductal carcinoma. Normal breast tissue derived from the same individual.
Data normalisation was done per-chip to correct for differences in labelling and hybridization efficiency. Per-gene normalisation was done such that the expression values of each gene are relative to the median value of that gene throughout the series of samples. By comparing the expression values under normal (nor) and tumor (turn) for a single patient, differences in expression between the normal and malignant tissue of that patient can be inferred.

[3] abbreviates: Table 17, referenced to median of the gene over 6 conditions.
The mark [4] stands for this setting: Table 15, referenced to the median value of that gene throughout all 6 conditions.

B1: p1K2 (nucleic acid, listed as Homo Sapiens)
DNA: AAGTCTCAGAGGCTGGAGAGCAGAGCACCAAGATCGTTCTGGCAGGAACAGCCAGTGGGAGGTTCCAGCTGAGCGCTCCCCAGAGGTGAGCTGATCCCCAGCCACAGCACACAGGACCAGGCTGCGAGAACAGCATCATCAGCATCATGCTATTACAATCCCAAACCATGGGGGTTTCTCACAGCTTTACACCAAAGGGCATCACTATCCCTCAAAGAGAGAAACCTGGACACATGTACCAAAACGAAGATTACCTGCAGAACGGGCTGCCAACAGAAACCACCGTTCTTGGGACAGTCCAGATCCTGTGTTGCCTGTTGATTTCAAGTCTGGGGGCCATCTTGGTTTTTGCTCCCTACCCCTCCCACTTCAATCCAGCAATTTCCACCACTTTGATGTCTGGGTACCCATTTTTAGGAGCTCTGTGTTTTGGCATTACTGGATCCCTCTCAATTATCTCTGGAAAACAATCAACTAAGCCCTTTGACCTGAGCAGCTTGACCTCAAATGCAGTGAGTTCTGTTACTGCAGGAGCAGGCCTCTTCCTCCTTGCTGACAGCATGGTAGCCCTGAGGACTGCCTCTCAACATTGTGGCTCAGAAATGGATTATCTATCCTCATTGCCTTATTCGGAGTACTATTATCCAATATATGAAATCAAAGATTGTCTCCTGACCAGTGTCAGTTTAACAGGTGTCCTAGTGGTGATGCTCATCTTCACTGTGCTGGAGCTCTTATTAGCTGCATACAGTTCTGTCTTTTGGTGGAAACAGCTCTACTCCAACAACCCTGGGAGTTCATTTTCCTCGACCCAGTCACAAGATCATATCCAACAGGTCAAAAAGAGTTCTTCACGGTCTTGGATATAAGTAACTCTTGGCCTCAGAGGAAGGAAAAGCAACTCAACACTCATGGTCAAGTGTGATTAGACTTTCCTGAAATCTCTGCCATTTTAGATACTGTGAAACAAACTAAAAAAAAAAAAGCTTTTGTTTTGTATTTGTTTACTATGAGTCGTTATTTAATTTCTCTTGAAAATAATTTCCTCAAAGCCCAAGTCAATAAA
In the case of B1, in data set [1] (setting [3]), the “mRNA EXPRESSION (experimental condition) #1” value is given as 1.30, the “mRNA EXPRESSION (experimental condition) #2” value amounted to 0.98, the “mRNA EXPRESSION (experimental condition) #3” value turned out to be 0.51 and the “mRNA EXPRESSION (experimental condition) #4” value amounted to 0.59. Further, in data set [1] (setting [3]), the “mRNA EXPRESSION (experimental condition) #5” value stood at 1.11 and the “mRNA EXPRESSION (experimental condition) #6” value came out at 0.91. Also, in data set [2] (Table 19), the “gene expression level on custom gene array, Breast nor H” value (“gene expression level … Breast nor H” below) is reported as 1.00; the “gene expression level on custom gene array, Breast nor K” value (shortened to “gene expression level … Breast nor K”) was determined as 0.79; the “gene expression level on custom gene array, Breast tum H” value (“gene expression level … Breast tum H” for short) turned out to be 0.49; the “gene expression level on custom gene array, Breast tum K” value (“gene expression level … Breast tum K” below) is 1.52. For the same molecule, in data set [2] (Table 19), the “gene expression level on custom gene array, Ovary nor E” value (shortened to “gene expression level … Ovary nor E”) stood at 0.47; the “gene expression level on custom gene array, Ovary nor F” value (“gene expression level … Ovary nor F” below) is recorded as 1.30; the “gene expression level on custom gene array, Ovary nor G” value (from here on “gene expression level … Ovary nor G”) was determined as 2.32; the “gene expression level on custom gene array, Ovary tum E” value (shortened to “gene expression level … Ovary tum E”) was 0.29. Moreover, in data set [2] (Table 19), the “gene expression level on custom gene array, Ovary tum F” value (“gene expression level … Ovary tum F” below) is on record as 1.06 and the “gene expression level on custom gene array, Ovary tum G” value (from here on “gene expression level … Ovary tum G”) was determined as 0.31.

B2: p1K8 (nucleic acid, listed as Homo Sapiens)
DNA: AGCACAGGACACAGCTGGGTTCTGAAGCTTCTGAGTTCTGCAGCCTCACCTCTGAGAAAACCTCTTTTCCACCAATACCATGAAGCTCTGCGTGACTGTCCTGTCTCTCCTCATGCTAGTAGCTGCCTTCTGCTCTCCAGCGCTCTCAGCACCAATGGGCTCAGACCCTCCCACCGCCTGCTGCTTTTCTTACACCGCGAGGAAGCTTCCTCGCAACTTTGTGGTAGATTACTATGAGACCAGCAGCCTCTGCTCCCAGCCAGCTGTGGTATTCCAAACCAAAAGAAGCAAGCAAGTCTGTGCTGATCCCAGTGAGACCTGGGTCCAGGAGTACGTGTATGACCTGGAACTGAACTGAGCTGCTCAGAGACAGGAAGTCTTCAGGGAAGGTCACCTGAGCCCGGATGCTTCTCCATGAGACACATCTCCTCCATACTCAGGACTCCTCTCCGCAGTTCCTGTCCCTTCTCTTAATTTAATCTTTTTTATGTGCCGTGTTATTGTATTAGGTGTCATTTCCATTATTTATATTAGTTTAGCCAAAGGATAAGTGTCCCCTATGGGGATGGTCCACTGTCACTGTTTCTCTGCTGTTGCAAATACATGGATAACACATTTGATTCTGTGTGTTTTCATAATAAAACTTTAAAATAAAATGCAGACAGTT
For B2, in data set [1] (setting [4]), the “mRNA EXPRESSION (experimental condition) #1” value is listed as 0.82, the “mRNA EXPRESSION (experimental condition) #2” value is on record as 0.40, the “mRNA EXPRESSION (experimental condition) #3” value came to 1.15 and the “mRNA EXPRESSION (experimental condition) #4” value is on record as 0.38. For the same molecule, in data set [1] (setting [4]), the “mRNA EXPRESSION (experimental condition) #5” value is on record as 91.4 and the “mRNA EXPRESSION (experimental condition) #6” value is 68.4. In data set [2] (Table 19), the “gene expression level … Breast nor H” value stood at 1.94; the “gene expression level … Breast nor K” value was 1.75; the “gene expression level … Breast tum H” value was found to be 0.68; the “gene expression level … Breast tum K” value was 1.62. In data set [2] (Table 19), the “gene expression level … Ovary nor E” value is reported as 1.00; the “gene expression level … Ovary nor F” value came out at 2.48; the “gene expression level … Ovary nor G” value worked out at 1.94; the “gene expression level … Ovary tum E” value is recorded as 0.56. In data set [2] (Table 19), the “gene expression level … Ovary tum F” value came out at 2.29 and the “gene expression level … Ovary tum G” value is 0.54.

B3: p1F17 (nucleic acid, listed as Homo Sapiens)
DNA: CAGCCTTATAAGCTGAGGGAGTGGAGAGGCCCGGGGCCAGGAAAGCAGAGACAGACAAAGCGTTAGGAGAAGAAGAGAGGCAGGGAAGACAAGCCAGGCACGATGGCCACCTTCCCACCAGCAACCAGCGCCCCCCAGCAGCCCCCAGGCCCGGAGGACGAGGACTCCAGCCTGGATGAATCTGACCTCTATAGCCTGGCCCATTCCTACCTCGGAGGTGGAGGCCGGAAAGGTCGCACCAAGAGAGAAGCTGCTGCCAACACCAACCGCCCCAGCCCTGGCGGGCACGAGAGGAAACTGGTGACCAAGCTGCAGAATTCAGAGAGGAAGAAGCGAGGGGCACGGCGCTGAGACAGAGCTGGAGATGAGGCCAGACCATGGACACTACACCCAGCAATAGAGACGGGACTGCGGAGGAAGGAGGACCCAGGACAGGATCCAGGCCGGCTTGCCACACCCCCCACCCCTAGGACTTATTCCCGCTGACTGAGTCTCTGAGGGGCTACCAGGAAAGCGCCTCCAACCCTAGCAAAAGTGCAAGATGGGGAGTGAGAGGCTGGGAATGGAGGGGCAGAGCCAGGAAGATCCCCCAGAAAAGAAAGCTACAGAAGAAACTGGGGCTCCTCCAGGGTGGCAGCAACAATAAATAGACACGCACGGCAGCCACAGCTTGGGTGTGTGTTCATCCTTGTTAAAAAAAAAAAAAAAAAAAAAAAAAA
Consider B3, for which, in data set [1] (setting [4]), the “mRNA EXPRESSION (experimental condition) #1” value is reported as 0.26, the “mRNA EXPRESSION (experimental condition) #2” value came out at 1.78, the “mRNA EXPRESSION (experimental condition) #3” value is 0.16 and the “mRNA EXPRESSION (experimental condition) #4” value was found to be 0.88. Besides, in data set [1] (setting [4]), the “mRNA EXPRESSION (experimental condition) #5” value is 1.16 and the “mRNA EXPRESSION (experimental condition) #6” value worked out at 2.59. Also, in data set [2] (Table 18), the “gene expression level … Breast nor H” value was found to be 1.00; the “gene expression level … Breast nor K” value came to 0.92; the “gene expression level … Breast tum H” value worked out at 0.97; the “gene expression level … Breast tum K” value was determined as 1.33. Besides, in data set [2] (Table 18), the “gene expression level … Ovary nor E” value is on record as 1.18; the “gene expression level … Ovary nor F” value worked out at 1.27; the “gene expression level … Ovary nor G” value is recorded as 0.55; the “gene expression level … Ovary tum E” value was found to be 0.17. Besides, in data set [2] (Table 18), the “gene expression level … Ovary tum F” value is listed as 1.47 and the “gene expression level … Ovary tum G” value came to 1.79. Also, in data set [2] (Table 19), the “gene expression level … Breast nor H” value was 1.00; the “gene expression level … Breast nor K” value came out at 0.92; the “gene expression level … Breast tum H” value came out at 0.97; the “gene expression level … Breast tum K” value worked out at 1.33. Also, in data set [2] (Table 19), the “gene expression level … Ovary nor E” value stood at 1.18; the “gene expression level … Ovary nor F” value was determined as 1.27; the “gene expression level … Ovary nor G” value was determined as 0.55; the “gene expression level … Ovary tum E” value worked out at 0.17. In data set [2] (Table 19), the “gene expression level … Ovary tum F” value is 1.47 and the “gene expression level … Ovary tum G” value is 1.79.

The values above are taken from patent publication US20030203372A1, “Analysis method” (priority 2000, published 2003).
